Changes are numbered by the printed parent chain. Blank lines part the entries; values can stand above or below the binder they belong to.
Biological target: T1, neuropilin-1 (NRP1) on HEK293 cells overexpressing NRP1 (UniProt O14786 22-923, limits assumed)
T1 construct: whole, on cells
Experiment: flow cytometry, HEK293-NRP1 vs HEK293

B2: NRP1-223 (antibody, IgG2, V domains shown)
VH: EVQLLESGGGLVQPGGSLRLSCAASGFTFKKYAMSWVRQAPGKGLEWVSTISGSGRSTYYADSVKGRFTISRDNSKNTLYLQMNSLRAEDTAVYYCARDLARGTMPRGVIIPHNWFDPWGQGTLVTVSS
VL: DIQMTQSPSSLSASVGDRVTITCRASQSVRNYLNWYQQKPGKAPKLLIYGASRLHSGVPSRFSGSGSGTDFTLTISSLQPEDFATYYCQQSYSGPYSFGGGTKVEIK
- 100 nM FACS (MFI Ratio): 12.8

B4: NRP1-227 (antibody, IgG2, V domains shown)
VH: EVQLLESGGGLVQPGGSLRLSCAASGFTLRNYAMSWVRQAPGKGLEWVSALSSSGGSTYYADSVKGRFTISRDNSKNTLYLQMNSLRAEDTAVYYCARGGRGLRLQVPIVRHARKGKDYYMDVWGQGTLVTVSS
VL: B2 VL with A25P, R30T, N31T, A51S, R53T, H55Q, S93T, G94F, Y96R, S97T
- 100 nM FACS (MFI Ratio): 2.6

B5: NRP1-224 (antibody, IgG2, V domains shown)
VH: EVQLLESGGGLVQPGGSLRLSCAASGFTFGSYAMAWVRQAPGKGLEWVSGITASGGSTYYADSVKGRFTISRDNSKNTLYLQMNSLRAEDTAVYYCARVGPGRSIAARQGFKRRNNWFDPWGQGTLVTVSS
VL: B2 VL with S28N, V29I, R30G, N31R, G50A, R53T, Y92H, G94N, Y96F, S97T
- 100 nM FACS (MFI Ratio): 1

B9: NRP1-219 (antibody, IgG2, V domains shown)
VH: EVQLLESGGGLVQPGGSLRLSCAASGFPFSSYALSWVRQAPGKGLEWVSAITGSGGNTFYADSVKGRFTISRDNSKNTLYLQMNSLRAEDTAVYYCARGGQSGRPRVRGARRLDYYGMDVWGQGTLVTVSS
VL: DIQMTQSPSSLSASVGDRVTITCRASQSISKSLNWYQQKPGKAPKLLIYGASKLQRGVPSRFSGSGSGTDFTLTISSLQPEDFATYYCQQGYSAPLTFGGGTKVEIK
- 100 nM FACS (MFI Ratio): 1.2

B10: NRP1-235 (antibody, IgG2, V domains shown)
VH: EVQLLESGGGLVQPGGSLRLSCAASGFTFPNYAMTWVRQAPGKGLEWVSGISGSGGRIYYADSVKGRFTISRDNSKNTLYLQMNSLGAEDTAVYYCARARKFRELLRRNNYSNHYYMDVWGQGTLVTVSS
VL: B9 VL with A25T, S30G, K31N, S32Y, R56S, A94T, L96R
- 100 nM FACS (MFI Ratio): 0.8

B11: NRP1-225 (antibody, IgG2, V domains shown)
VH: B4 VH with T28M, L29F, R30S, N31R, L51I, S53G, G56D, S57T, Y59H
VL: B9 VL with S30G, K31S, S32H, N34S, G50R, K53S, R56T, Q89L, G91T, A94V
- 100 nM FACS (MFI Ratio): 1.1

B12: NRP1-238 (antibody, IgG2, V domains shown)
VH: B5 VH with T28S, G30S, S31N, A33G, A35S, G50S, T52S, A53H
VL: B2 VL with V29I, R30S, N31S, Y32Q, G50R, H55Q, G94T, Y96R
- 100 nM FACS (MFI Ratio): 0.9

B13: NRP1-228 (antibody, IgG2, V domains shown)
VH: EVQLLESGGGLVQPGGSLRLSCAASGFSFSTHAMTWVRQAPGKGLEWVSTISGLGTGTYYADSVKGRFTISRDNSKNTLYLQMNSLRAEDTAVYYCARSTRGGFDYWGQGTLVTVSS
VL: B9 VL with S26G, S30R, K31S, S32Y, G50A, K53T, G91T, S93T, A94T
- 100 nM FACS (MFI Ratio): 3

B14: NRP1-232 (antibody, IgG2, V domains shown)
VH: EVQLLESGGGLVQPGGSLRLSCAASGFTFTNYAMNWVRQAPGKGLEWVSSISGSGGRTDYADSVKGRFTISRDNSKNTLYLQMNSLRAEDTAVYYCARLKRGGTNLVRKATRYQFYGMDAWGQGTLVTVSS
VL: B9 VL with S28N, S30A, S32Y, G50S, K53N, R56S, G91N, S93K, A94T, L96Y
- 100 nM FACS (MFI Ratio): 1.3

B15: NRP1-229 (antibody, IgG2, V domains shown)
VH: EVQLLESGGGLVQPGGSLRLSCAASGLTFSNFAMSWVRQAPGKGLEWVSAISGRGSSTYYADSVKGRFTISRDNSKNTLYLQMNSLRAEDTAVYYCARVMKMSRRIVGRRHRKGDGMDVWGQGTLVTVSS
VL: B9 VL with S28A, K31R, K53A, R56T, G91S, S93R, A94P, L96F
- 100 nM FACS (MFI Ratio): 1.2

B16: NRP1-220 (antibody, IgG2, V domains shown)
VH: EVQLLESGGGLVQPGGSLRLSCAASGFTFRTYDMGWVRQAPGKGLEWVSAVSGSGGTTYYADSVKGRFTISRDNSKNTLYLQMNSLRAEDTAVYYCARETRRVLRRQWRRSYHSYGLDVWGQGTLVTVSS
VL: B9 VL with K31N, S32K, G50A, K53T, G91S, S93K, A94T
- 100 nM FACS (MFI Ratio): 2.3

B18: NRP1-16 (VHH)
VHH: EVQLVESGGGLVQPGGSLRLSCAASGRTFSRYVMGWFRQAPGKEREWVATSGTGYGATYADSVKGRFTISADNSKNTAYLQMNSLKPEDTAVYYCARGWLRTGWSIWGQGTLVTVSS
- 100 nM FACS (MFI Ratio): 15.9

The next lines start with the values.

- 100 nM FACS (MFI Ratio): 0.2
B1: NRP1-239 (antibody, IgG2, V domains shown)
VH: B5 VH with T28P, G30S, S31N, A33T, A35G, G50A, T52S, T58P, K65N
VL: DIQMTQSPSSLSTSVGDRVTITCRASQNIGSHLNWYQQKPGKAPKLLIYATSSLRSGVPSRFSGSGSGTDFTLTISSLQPEDFATYYCQQSYRIPLTFGGGTKVEIK

- 100 nM FACS (MFI Ratio): 5
B3: NRP1-248 (antibody, IgG2, V domains shown)
VH: EVQLLESGGGLVQPGGSLRLSCAASGFTFSKYAMSWVRQAPGKGLEWVSSISTSGGSTYYADSVKGRFTISRDNSKNTLYLQMNSLRAEDTAVYYCARGLLRLKPERRVRTTYYYGMDVWGQGTLVTVSS
VL: B2 VL with A25T, V29I, R30G, N31S, G50A, A51S, R53S, H55Q, G94T, Y96F

- 100 nM FACS (MFI Ratio): 6.2
B6: NRP1-262 (antibody, IgG2, V domains shown)
VH: B2 VH
VL: DIQMTQSPSSLSASVGDRVTITCRTSQSINTYLNWYQQKPGKAPKLLIYAASGLHSGVPSRFSGSGSGTDFTLTISSLQPEDFATYYCQQAYGTPFTFGGGTKVEIK

- 100 nM FACS (MFI Ratio): 2.1
B7: NRP1-244 (antibody, IgG2, V domains shown)
VH: EVQLLESGGGLVQPGGSLRLSCAASGFTFTSYGMSWVRQAPGKGLEWVSTISGSGGYTYYADSVKGRFTISRDNSKNTLYLQMNSLRAEDAAVYYCALWNRYGGLSYWGQGTLVTVSS
VL: B6 VL with T25A, N30A, N34H, A50G, A51T, G53N, H55Q, A91S, G93R, F96G

- 100 nM FACS (MFI Ratio): 1
B8: NRP1-252 (antibody, IgG2, V domains shown)
VH: EVQLLESGGGLVQPGGSLRLSCAASGFTFRSLAVSWVRQAPGKGLEWVSTITGSGGATYYADSVKGRFTISRDNSKNTLYLQMNSLRAEDTAVYYCARGRRGMPTPDTVRKMSKSHLYFDSWGQGTLVTVSS
VL: B6 VL with T25A, S26R, N30S, A50S, G53T, H55E, A91S, G93R, F96W

- 100 nM FACS (MFI Ratio): 2.8
B17: NRP1-254 (antibody, IgG2, V domains shown)
VH: EVQLLESGGGLVQPGGSLRLSCAASGFTFNTHAMSWVRQAPGKGLEWVSTISGSGGYTYYADSVKGRFTISRDNSKNTLYLQMNSLRAEDTAVYYCAKDLAAAGDYWGQGTLVTVSS
VL: B6 VL with T25A, S28R, N30S, G53H, H55Q, A91S, Y92H, G93T, F96L

Source: US20230265198A1 (TWIST BIOSCIENCE, published 2023)
